{
  "source": "patent US11365402B2",
  "about": "“Internal protein tags” (Promega Corporation, priority 2014, dated 2022)",
  "test_system": "Anti-VEGF antibody",
  "assay": "Target antibody driven NANOLUC bioluminescence complementation (NLpep114-VEGFA targets, NLpoly11S-protein G, anti-VEGF antibody)",
  "format": "cell-based",
  "details": "HEK293T cells",
  "from_the_text": "FIG. 6 depicts a schematic of how the assay components are used to screen for antibody binding to target protein by way of antibody driven NANOLUC bioluminescence complementation between NLpoly11S-fused protein G and internally tagged NLpep114 target protein. The Target, containing an internal pep114 tag, is expressed in mammalian cell culture with an IL6 signal peptide (SP). The SP directs the Target to the secretion pathway. The Target can be assayed in the media (+/−) cells. In the example, a purified preparation of the Large Bit (11S-protein G fusion protein) and Test Antibody are added directly to the mammalian cell culture. The protein G domain of the Large Bit binds to the Fc region of the Test Antibody between the Heavy Chain Constant Domains 2 and 3. If the Test Antibody binds to the Target, the Large and Small Bits can come together to form an active luminesent complex that is detected by furimazine.\nNLpep114-target fusion construct DNA was diluted into carrier DNA (pGEM3Zf(−); Promega) at bug total DNA at a mass ratio of 1:10. DNA:FuGENE complexes were formed at a ratio of 1:3 (ug DNA/ul FuGENE), according to manufacturer's protocol (Promega). One part of the transfection complex was mixed with 20 parts (volume/volume) of HEK293T cells (ATCC) suspended at a density of 2×10^5 cells/ml in DMEM (Gibco)+10% FBS (Hyclone). Cells (50 ul/well) were dispensed into 96-well tissue culture plates and incubated in a humidified, 37° C./5% CO2 incubator for 18-24 hours.\nHEK293T cells (ATCC) were transfected with three NLpep114-VEGFA DNAs as described above and incubated overnight. The cells were serum starved for 4 hours under the same conditions by replacing the media with an equal volume of (Gibco). NLpoly11S(15)pG in 1×PBS/0.1% BSA (Promega) was added (25 ul/well) to a final concentration of 0.5 ug/ml (12 nM). Anti-VEGF antibody (R&D Systems, #293) in 1×PBS/0.1% BSA (Promega) was added (25 ul/well) to a final concentration of 0-0.73 ug/ml (0-5.3 nM). After the addition of LCS Reagent (Promega, 100 ul/well, 10 μM final concentration), luciferase activity was measured using an Infinity F500 microtiter plate reader (Tecan).",
  "data": [
    {"molecule": "ATG-1946: Experimental Target with the Small Bit between one large and one small domain (C-terminal FLAG) (SEQ ID NO: 2579) (protein) MNSFSTSAFGPVAFSLGLLLVLPAAFPAPRAEIGTGFPFDPHYVEVLGERMHYVDVGPRDGTPVLFLHGNPTSSYVWRNIIPHVAPTHRCIAPDLIGMGKSDKPDLGYFFDDHVRFMDAFIEALGLEEVVLVIHDWGSALGFHWAKRNPERVKGIAFMEFIRPIPTWDEWPEFARETFQAFRTTDVGRKLIIDQNVFIEGTLPMGVVRPLTEVEMDHYREPFLNPVDREPLWRFPNELPIAGEPANIVALVEEYMDWLHQSPVPKLLFWGTPGVLIPPAEAARLAKSLPNCKAVDIGPGLNLLQEDNPDLIGSEIARWLSTLEISGEPTTEDLYFQSDNAPMAEGGGQNHHEVVKFMDVYQRSYCHPIETLVDIFQEYPDEIEYIFKPSCVPLMRCGGCCNDEGLECVPTEESNITMQIMRIKPHQGQHIGEMSFLQHNKCECRPKKDRARQENPCGPCSERRKHLFVQDPQTCKCSCKNTDSRCKARQLELNERTCRCDKPRRGSSGVTGYRLFEEILGSDYKDDDDK", "values": [
      {"measurement": "signal loss relative to ATG-1915 (C-terminal NLpep114 tag)", "setting": "anti-VEGF antibody", "result": 40, "unit": "%"}
    ]},
    {"molecule": "ATG-1917: Experimental Target with the Small Bit (NLpep114) between two large domains (SEQ ID NO: 2578) (protein) MNSFSTSAFGPVAFSLGLLLVLPAAFPAPRAEIGTGFPFDPHYVEVLGERMHYVDVGPRDGTPVLFLHGNPTSSYVWRNIIPHVAPTHRCIAPDLIGMGKSDKPDLGYFFDDHVRFMDAFIEALGLEEVVLVIHDWGSALGFHWAKRNPERVKGIAFMEFIRPIPTWDEWPEFARETFQAFRTTDVGRKLIIDQNVFIEGTLPMGVVRPLTEVEMDHYREPFLNPVDREPLWRFPNELPIAGEPANIVALVEEYMDWLHQSPVPKLLFWGTPGVLIPPAEAARLAKSLPNCKAVDIGPGLNLLQEDNPDLIGSEIARWLSTLEISGEPTTEDLYFQSDNVTGYRLFEEILGSSGAPMAEGGGQNHHEVVKFMDVYQRSYCHPIETLVDIFQEYPDEIEYIFKPSCVPLMRCGGCCNDEGLECVPTEESNITMQIMRIKPHQGQHIGEMSFLQHNKCECRPKKDRARQENPCGPCSERRKHLFVQDPQTCKCSCKNTDSRCKARQLELNERTCRCDKPRR", "values": [
      {"measurement": "signal reduction relative to ATG-1915 (C-terminal NLpep114 tag)", "setting": "anti-VEGF antibody", "result": 5, "unit": "fold"}
    ]},
    {"molecule": "ATG-1915: Control Target with a terminal Small Bit: HALOTAG-VEGFA-165 with C-terminal NLpep114 tag (SEQ ID NO: 2577) (protein) MNSFSTSAFGPVAFSLGLLLVLPAAFPAPRAEIGTGFPFDPHYVEVLGERMHYVDVGPRDGTPVLFLHGNPTSSYVWRNIIPHVAPTHRCIAPDLIGMGKSDKPDLGYFFDDHVRFMDAFIEALGLEEVVLVIHDWGSALGFHWAKRNPERVKGIAFMEFIRPIPTWDEWPEFARETFQAFRTTDVGRKLIIDQNVFIEGTLPMGVVRPLTEVEMDHYREPFLNPVDREPLWRFPNELPIAGEPANIVALVEEYMDWLHQSPVPKLLFWGTPGVLIPPAEAARLAKSLPNCKAVDIGPGLNLLQEDNPDLIGSEIARWLSTLEISGEPTTEDLYFQSDNAPMAEGGGQNHHEVVKFMDVYQRSYCHPIETLVDIFQEYPDEIEYIFKPSCVPLMRCGGCCNDEGLECVPTEESNITMQIMRIKPHQGQHIGEMSFLQHNKCECRPKKDRARQENPCGPCSERRKHLFVQDPQTCKCSCKNTDSRCKARQLELNERTCRCDKPRRGSSGVTGYRLFEEIL", "values": [
      {"measurement": "overall luminescence signal, compared among constructs", "setting": "anti-VEGF antibody", "result": "highest signal"},
      {"measurement": "signal over background (increase in bioluminescence with antibody over assay components without antibody)", "setting": "anti-VEGF antibody 0-0.73 ug/ml (0-5.3 nM), NLpoly11S-protein G 0.5 ug/ml (12 nM)", "result": "over 400 fold"}
    ]}
  ]
}
